The numbers were not newly measured in publication PMC3526805, which cites them from elsewhere.

The data set concerns the target C3b C3b (Homo sapiens) (UniProt P01024).
Sequence of UniProt P01024 (P01024 566-670): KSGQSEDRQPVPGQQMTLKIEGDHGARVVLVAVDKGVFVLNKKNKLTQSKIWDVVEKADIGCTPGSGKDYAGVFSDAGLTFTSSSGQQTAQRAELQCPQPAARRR

Consider “Factor H four regulatory domains (from UniProt P08603)”, for which the equilibrium dissociation constant (Kd) (in general, the equilibrium constant for the complex coming apart) is 10 µM.
